How the values were obtained:
Autotaxin (ENPP2, NPP2) [1] = biological target: T1, Autotaxin (ENPP2, NPP2) (Homo sapiens, UniProt Q13822 Q13822:36-863); assay: inhibition
Autotaxin (ENPP2, NPP2) [2] = biological target: T1, Autotaxin (ENPP2, NPP2); assay: inhibition; NPP2 assay, pNP-TMP substrate, solution A (Ca, Mg), 37 C

Binder | IC50 (Autotaxin (ENPP2, NPP2) [1]) [nM] | IC50 (Autotaxin (ENPP2, NPP2) [2]) [nM]
UCUGAGGGAAACAGGUUUUGCUCCUCGGA (mixed, as 16(4) with dG8) [SEQ 16(14)] | 6.3 | 
UCUGAGGGGAACAGGUUUUGCUCCUCGGA (ssRNA, 2'-F pyrimidines, 2'-OH purines) [SEQ 33] | 690 | 
UCUGAGGGAAACAGGUUUUGCUCCUCGGA (mixed, as 16(22) with ssH linker instead of 5' idT) [SEQ 16(31)] | 0.8 | 
UCUGAGGGAAACAGGUUUUGCUCCUCGGA (mixed, dT1,dC2,dT3; 2'-deoxy G8,G14,G15,C23,C24,C26; 2'-OMe G4,A5,G6,G7,A9,A11,A13,G20,G27,G28,A29; 2'-OH A10 with PS; other pyrimidines 2'-F; 5' 80 kDa PEG (GL2-800GS2)-ssH linker; 3' idT) [SEQ 16(54)] |  | 2.3
UCUGAGGGAAACAGGUUUUGCUCCUCGGA (mixed, dT1; 2'-deoxy G8,G14,G15,C23,C26; 2'-OMe C2,U3,G4,A5,G6,G7,A9,A11,A13,G20,C21,U22,C24,U25,G27,G28,A29; 2'-OH A10 with PS; other pyrimidines 2'-F; 5' 80 kDa PEG (GL2-800GS2)-ssH linker; 3' idT) [SEQ 16(67)] |  | 0.6
UUCGAGGGAAACAGGUUUUGCUCCUCAAA (ssRNA, 2'-F pyrimidines, 2'-OH purines) [SEQ 52] | 59 | 
UCUGAGGGAAACAGGUUUUGCUCCUCGGA (mixed, dT1; 2'-deoxy G8,G14,G15,C23,C26; 2'-OMe C2,U3,G4,A5,G6,G7,A9,A11,A13,G20,U22,C24,U25,G27,G28,A29; 2'-OH A10 with PS; other pyrimidines 2'-F; 5' 40 kDa PEG (GL2-400GS2)-ssH linker; 3' idT) [SEQ 16(66)] |  | 0.7
UCUGAGGGAAACAGGUCUUGCUCCUCGGA (ssRNA, 2'-F pyrimidines, 2'-OH purines) [SEQ 41] | 43 | 
UCUGAGGGAAACAGGCUUUGCUCCUCGGA (ssRNA, 2'-F pyrimidines, 2'-OH purines) [SEQ 31] | 130 | 
UCUGAGGGAAACAGGUUUUGCUCCUCGGA (ssRNA, as 16(4) with 5' 40 kDa PEG (GL2-400TS)-ssH linker instead of 5' idT) [SEQ 16(8)] | 42 | 
UCUGAGGGAAACAGGUUUUGCUCCUCGGA (mixed, as 16(21) with dC26) [SEQ 16(26)] | 2.1 | 
UCUGAGGGAAACAGGUUUUGCUCCUCGGA (mixed, as 16(4) with dT18) [SEQ 16(17)] | 46 | 
UCUGAGGGAAACAGGUUUUGCUCCUCGGA (mixed, dT1; 2'-deoxy G8,G14,G15,C23,C26; 2'-OMe G4,A5,G6,G7,A9,A11,A13,G20,G27,G28,A29; 2'-OH A10 with PS; other pyrimidines 2'-F; 5' 80 kDa PEG (GL4-800GS2)-ssH linker; 3' idT) [SEQ 16(64)] |  | 1.3
UCUGAGGGAAACAGGUUUUGCUCCUCGGA (mixed, as 16(21) with 5' 40 kDa PEG (GL2-400GS2)-ssH linker instead of 5' idT) [SEQ 16(24)] | 7.4 | 
UCUGAGGGUAACAGGUUAUGCUCCUCGGA (ssRNA, 2'-F pyrimidines, 2'-OH purines) [SEQ 26] | 510 | 
UCUGAGGGAAACAGGUUUUGCUCCUCGGA (ssRNA, as 16(1) + 5' and 3' idT) [SEQ 16(3)] | 10 | 
UCCGAGGGAAACAGGUUUUGCUCCUCGCA (ssRNA, 2'-F pyrimidines, 2'-OH purines) [SEQ 47] | 66 | 
UCUGAGGGAAACAGGUUUCGCUCCUCGGA (ssRNA, 2'-F pyrimidines, 2'-OH purines) [SEQ 32] | 55 | 
UCUGAGGGAAACAGGUUUUGCUCCUCGGA (mixed, as 16(4) with dC23 dC24) [SEQ 16(12)] | 37 | 
UCUGGGGGAAACAGGUUUUGCUCCCCGGA (ssRNA, 2'-F pyrimidines, 2'-OH purines) [SEQ 44] | 38 | 
UCUGAGGGAAACAGGUUUUGCUCCUCGGA (ssRNA, 2'-F all pyrimidines; 2'-OMe G4 A5 G6 G7 G27 G28 A29; other purines 2'-OH) [SEQ 16(1)] | 17 | 
UCUGAGGGAAACAGGUUUUGCUCCUCGGA (mixed, as 16(21) with dC23) [SEQ 16(29)] | 3.3 | 

Binder | IC50 (Autotaxin (ENPP2, NPP2) [1]) [nM] | IC50 (Autotaxin (ENPP2, NPP2) [2]) [nM]
GAGGGAAACAGGUUUUGCUCCUC (ssRNA, 2'-F pyrimidines, 2'-OH purines) [SEQ 20] | 100 | 
UCUGAGGGAAACAGGUUUUGCUCCUCGGA (mixed, dT1; 2'-deoxy G8,G14,G15,C23,C26; 2'-OMe G4,A5,G6,G7,A9,A11,A13,U17,G20,G27,G28,A29; 2'-OH A10 with PS; other pyrimidines 2'-F; 5' and 3' idT) [SEQ 16(61)] |  | 23
UCUGAGGGAAACAGGUUUUGCUCCUCGGA (mixed, dT1; 2'-deoxy G8,G14,G15; 2'-OMe G4,A5,G6,G7,A9,A11,A13,G20,G27,G28,A29; 2'-OH A10 with PS; other pyrimidines 2'-F; 5' 80 kDa PEG (GL2-800GS2)-ssH linker; 3' idT) [SEQ 16(53)] |  | 2.7
UCUGAGGGAAACAGGUUUUGCUCCUCGGA (mixed, as 16(4) with dC12) [SEQ 16(20)] | 44 | 
UCUGAGGGAAACAGGUUUUGCUCCUCGGA (mixed, as 16(21) with dT1 dC2 dT3) [SEQ 16(25)] | 2.3 | 
UCUGAGGGAAACAGGUUUUGCUCCUCGGA (mixed, as 16(4) with dG14 dG15) [SEQ 16(6)] | 5.9 | 
UCUGAGGGAAACAGGUUUUGCUCCUCGGA (mixed, as 16(4) with dC21) [SEQ 16(15)] | 77 | 
UCUGAGGGAAACAGGUUUUGCUCCUCGGA (mixed, as 16(4) with dT1 dC2 dT3) [SEQ 16(10)] | 21 | 
UCUGAGGGAAACAGGUUUUGCUCCUCGGA (mixed, as 16(4) with dT22) [SEQ 16(13)] | 52 | 
UCUGAGGGAGACAGGUUUUGCUCCUCGGA (ssRNA, 2'-F pyrimidines, 2'-OH purines) [SEQ 34] | 340 | 
AGGGAAACAGGUUUUGCUCCU (ssRNA, 2'-F pyrimidines, 2'-OH purines) [SEQ 21] | 710 | 
UCUGAGGGAAACAGGUUUUGCUCCUCGGA (ssRNA, 2'-F all pyrimidines and G8; 2'-OMe G4 A5 G6 G7 A9 A11 A13 G20 G27 G28 A29; 2'-OH A10 G14 G15) [SEQ 16(2)] | 22 | 
UCUGAGGGAAACAGGUUUUGCUCCUCGGA (mixed, as 16(4) with dT19) [SEQ 16(16)] | 45 | 
UCUGAGGGAAACAGGUUUUGCUCCUCGGA (ssRNA, as 16(4) with 5' 80 kDa PEG (GL2-800TS)-ssH linker instead of 5' idT) [SEQ 16(9)] | 32 | 
UCUGAGGGAAACAGGUUUUGCUCCUCGGA (mixed, as 16(4) with dT17) [SEQ 16(18)] | 29 | 
UUUGAAGGAAACAGGUUUUGCUCUUCGAG (ssRNA, 2'-F pyrimidines, 2'-OH purines) [SEQ 51] | 85 | 
UCUGAGGGAAACAGGUUUUGCUCCUCGGA (mixed, dT1; 2'-deoxy G8,G14,G15,C23,C26; 2'-OMe G4,A5,G6,G7,A9,A11,A13,G20,G27,G28,A29; 2'-OH A10 with PS; other pyrimidines 2'-F; 5' 40 kDa PEG (GL2-400GS2)-ssH linker; 3' idT) [SEQ 16(63)] |  | 0.8
UCUGAGGGAAACAGGUUUUGCUCCUCGGA (ssRNA, as 16(2) + 5' and 3' idT (G14 printed lower case, probably typo)) [SEQ 16(4)] | 17 | 
ACUGCUUGAAACAGGUUUUGCUGAGCAGU (ssRNA, 2'-F pyrimidines, 2'-OH purines) [SEQ 24] | 33 | 
CUGAGGGAAACAGGUUUUGCUCCUCGG (ssRNA, 2'-F pyrimidines, 2'-OH purines) [SEQ 18] | 34 | 
UCUGAGGGUAACAGGUUUUGCUCCUCGGA (ssRNA, 2'-F pyrimidines, 2'-OH purines) [SEQ 40] | 49 | 
CGAGGGAAACAGGUUUUGCUCCUCG (ssRNA, 2'-F pyrimidines, 2'-OH purines) [SEQ 19] | 36 | 

Binder | IC50 (Autotaxin (ENPP2, NPP2) [1]) [nM] | IC50 (Autotaxin (ENPP2, NPP2) [2]) [nM]
UCUGAGGGAAACAGGUUUUGCUCCUCGGA (mixed, 2'-F all pyrimidines; 2'-OMe G4 A5 G6 G7 A9 A11 A13 G20 G27 G28 A29; 2'-OH A10; dG8 dG14 dG15; 5' and 3' idT) [SEQ 16(21)] | 2.2 | 
UCUGAGGGAAACAGGUUUUGCUCCUCGGA (mixed, as 16(21) with dT25) [SEQ 16(27)] | 3.2 | 
UCUGAGGGAAACAGGUUUUGCUCCUCGGA (mixed, as 16(21) with ssH linker instead of 5' idT) [SEQ 16(30)] | 4.4 | 
UCUGAGGGAAACAGGUUUUGCUCCUCGGA (mixed, as 16(21) with dT1 dC2 dT3 dC23 dC24 dC26) [SEQ 16(32)] | 1.4 | 
UGGGAAGGAAACAGGUUUUGCUCUUCACC (ssRNA, 2'-F pyrimidines, 2'-OH purines) [SEQ 53] | 30 | 
UCCGAGGGAAACAGGUUUUGCUCCUCGGA (ssRNA, 2'-F pyrimidines, 2'-OH purines) [SEQ 29] | 53 | 
UCUGAGGGAAACAGGUUUUGCUCCUCGGA (mixed, dT1; 2'-deoxy G8,G14,G15,C23,C26; 2'-OMe G4,A5,G6,G7,A9,A11,A13,U18,G20,G27,G28,A29; 2'-OH A10 with PS; other pyrimidines 2'-F; 5' and 3' idT) [SEQ 16(62)] |  | 23
UAGAGAUGGAAACAGGUUUUGCUCAUCUCA (ssRNA, 2'-F pyrimidines, 2'-OH purines) [SEQ 50] | 21 | 
UCUGAGGGAAACAGGUUUUGCUCCUCGGA (mixed, 2'-deoxy G8,G14,G15,C23,C26; 2'-OMe G4,A5,G6,G7,A9,A11,A13,G20,G27,G28,A29; 2'-OH A10; other pyrimidines 2'-F; 5' 80 kDa PEG (GL2-800GS2)-ssH linker; 3' idT) [SEQ 16(50)] |  | 12
UCUGAGGGAAACAGGUUUUGCUCCUCGAA (ssRNA, 2'-F pyrimidines, 2'-OH purines) [SEQ 45] | 29 | 
UCUGAGGGAAACAGGUUUUGCUCCUCGGA (mixed, as 16(4) with dT16) [SEQ 16(19)] | 51 | 
UCUGAGGGAAACAGGUUUUGCUCCUCAGA (ssRNA, 2'-F pyrimidines, 2'-OH purines) [SEQ 30] | 50 | 
UCUGAGGGAAACAGGUUUUGCUCCUCGGA (mixed, dT1; 2'-deoxy G8,G14,G15,C23,C26; 2'-OMe G4,A5,G6,G7,A9,A11,A13,G20,C24,U25,G27,G28,A29; 2'-OH A10 with PS; other pyrimidines 2'-F; 5' and 3' idT) [SEQ 16(56)] |  | 0.2
UCUGAGGGAAACAGGUUUUGCUCCUCGGA (mixed, as 16(21) with PS at A10) [SEQ 16(22)] | 0.5 | 
UCUGAGGGAAACAGGUUUUGCUCCUCGGA (mixed, as 16(21) with dC24) [SEQ 16(28)] | 2.7 | 
UCUGAGGGAAACAGGUUUUGCUCCUCGGA (mixed, as 16(4) with dT25 dC26) [SEQ 16(11)] | 27 | 
UCUGAGGGAAACAGGUUUUGCUCCUCGGA (mixed, as 16(4) with dG14) [SEQ 16(5)] | 6.7 | 
UCUGAGGGAAACAGGUUUUGCUCCUCGGA (ssRNA, as 16(4) with PS at A10) [SEQ 16(7)] | 7.3 | 
UCUGAGGGAAACAGGUUUUGCUCCUCGGA (mixed, dT1; 2'-deoxy G8,G14,G15; 2'-OMe G4,A5,G6,G7,A9,A11,A13,G20,G27,G28,A29; 2'-OH A10; other pyrimidines 2'-F; 5' 80 kDa PEG (GL2-800GS2)-ssH linker; 3' idT) [SEQ 16(52)] |  | 9.4
UCUGAGGGAAACAGGUUUUGCUCCUCGGA (mixed, 2'-deoxy G8,G14,G15,C23,C26; 2'-OMe G4,A5,G6,G7,A9,A11,A13,G20,G27,G28,A29; 2'-OH A10 with PS; other pyrimidines 2'-F; 5' 80 kDa PEG (GL2-800GS2)-ssH linker; 3' idT) [SEQ 16(51)] |  | 2.8

Reference: patent US20170044545, “APTAMER FOR BONDING TO AUTOTAXIN AND INHIBITING BIOLOGICAL ACTIVITY OF AUTOTAXIN, AND USE FOR SAME” (RIBOMIC INC., published 2017)
